± gives the uncertainty stated by the source.
Assay: abundance fitness (aPCA) (normalised: wild type 0, dead -1); higher = more abundant; growth selection in yeast, the domain comes from the species named
Settings: Homo sapiens

| Substance | abundance fitness |
| --- | --- |
| Lipoamide acyltransferase component of branched-chain alpha-keto acid dehydrogenase complex, mitochondrial T171F, P11182 | -0.028 ± 0.12 |
| Lipoamide acyltransferase component of branched-chain alpha-keto acid dehydrogenase complex, mitochondrial A176N, P11182 | -0.113 ± 0.097 |
| Lipoamide acyltransferase component of branched-chain alpha-keto acid dehydrogenase complex, mitochondrial K187Q, P11182 | -0.06 ± 0.045 |
| Lipoamide acyltransferase component of branched-chain alpha-keto acid dehydrogenase complex, mitochondrial S189M, P11182 | -0.264 ± 0.061 |
| Lipoamide acyltransferase component of branched-chain alpha-keto acid dehydrogenase complex, mitochondrial S189C, P11182 | -0.111 ± 0.071 |
| Lipoamide acyltransferase component of branched-chain alpha-keto acid dehydrogenase complex, mitochondrial K202R, P11182 | -0.001 ± 0.037 |
| Lipoamide acyltransferase component of branched-chain alpha-keto acid dehydrogenase complex, mitochondrial K202M, P11182 | -0.089 ± 0.053 |
| Lipoamide acyltransferase component of branched-chain alpha-keto acid dehydrogenase complex, mitochondrial V177D, P11182 | -0.417 ± 0.073 |
| Lipoamide acyltransferase component of branched-chain alpha-keto acid dehydrogenase complex, mitochondrial L209W, P11182 | -0.27 ± 0.047 |
| Lipoamide acyltransferase component of branched-chain alpha-keto acid dehydrogenase complex, mitochondrial T174D, P11182 | 0.003 ± 0.058 |
| Lipoamide acyltransferase component of branched-chain alpha-keto acid dehydrogenase complex, mitochondrial D197V, P11182 | -0.728 ± 0.061 |
| Lipoamide acyltransferase component of branched-chain alpha-keto acid dehydrogenase complex, mitochondrial S194C, P11182 | -0.47 ± 0.045 |
| Lipoamide acyltransferase component of branched-chain alpha-keto acid dehydrogenase complex, mitochondrial K196W, P11182 | -0.52 ± 0.053 |
| Lipoamide acyltransferase component of branched-chain alpha-keto acid dehydrogenase complex, mitochondrial L209Q, P11182 | -0.072 ± 0.043 |
| Lipoamide acyltransferase component of branched-chain alpha-keto acid dehydrogenase complex, mitochondrial K211E, P11182 | -0.045 ± 0.039 |
| Lipoamide acyltransferase component of branched-chain alpha-keto acid dehydrogenase complex, mitochondrial E203F, P11182 | -0.409 ± 0.14 |
| Nanos homolog 2 V100L, P60321 | -0.123 ± 0.077 |
| Lipoamide acyltransferase component of branched-chain alpha-keto acid dehydrogenase complex, mitochondrial T171C, P11182 | -0.282 ± 0.063 |
| Nanos homolog 2 K82R, P60321 | -0.243 ± 0.069 |
| Lipoamide acyltransferase component of branched-chain alpha-keto acid dehydrogenase complex, mitochondrial T174V, P11182 | -0.773 ± 0.052 |
| Lipoamide acyltransferase component of branched-chain alpha-keto acid dehydrogenase complex, mitochondrial G195I, P11182 | -0.867 ± 0.15 |
| Lipoamide acyltransferase component of branched-chain alpha-keto acid dehydrogenase complex, mitochondrial P175V, P11182 | -0.029 ± 0.043 |
| Lipoamide acyltransferase component of branched-chain alpha-keto acid dehydrogenase complex, mitochondrial Y208G, P11182 | -0.172 ± 0.036 |
| Lipoamide acyltransferase component of branched-chain alpha-keto acid dehydrogenase complex, mitochondrial T171S, P11182 | -0.267 ± 0.075 |
| Lipoamide acyltransferase component of branched-chain alpha-keto acid dehydrogenase complex, mitochondrial L201T, P11182 | 0.035 ± 0.054 |

| Substance | abundance fitness |
| --- | --- |
| Lipoamide acyltransferase component of branched-chain alpha-keto acid dehydrogenase complex, mitochondrial I205V, P11182 | 0.028 ± 0.042 |
| Lipoamide acyltransferase component of branched-chain alpha-keto acid dehydrogenase complex, mitochondrial P175F, P11182 | -0.098 ± 0.064 |
| Lipoamide acyltransferase component of branched-chain alpha-keto acid dehydrogenase complex, mitochondrial I200P, P11182 | -0.483 ± 0.05 |
| Lipoamide acyltransferase component of branched-chain alpha-keto acid dehydrogenase complex, mitochondrial Q212R, P11182 | 0.085 ± 0.042 |
| Lipoamide acyltransferase component of branched-chain alpha-keto acid dehydrogenase complex, mitochondrial I205G, P11182 | -0.359 ± 0.037 |
| Lipoamide acyltransferase component of branched-chain alpha-keto acid dehydrogenase complex, mitochondrial I200M, P11182 | -0.563 ± 0.061 |
| Lipoamide acyltransferase component of branched-chain alpha-keto acid dehydrogenase complex, mitochondrial S194N, P11182 | -0.287 ± 0.049 |
| Lipoamide acyltransferase component of branched-chain alpha-keto acid dehydrogenase complex, mitochondrial K187C, P11182 | -0.251 ± 0.099 |
| Lipoamide acyltransferase component of branched-chain alpha-keto acid dehydrogenase complex, mitochondrial L188G, P11182 | -0.544 ± 0.036 |
| Lipoamide acyltransferase component of branched-chain alpha-keto acid dehydrogenase complex, mitochondrial K187P, P11182 | 0.022 ± 0.049 |
| Lipoamide acyltransferase component of branched-chain alpha-keto acid dehydrogenase complex, mitochondrial G214E, P11182 | 0.135 ± 0.12 |
| Nanos homolog 2 Q107R, P60321 | -0.016 ± 0.12 |
| Lipoamide acyltransferase component of branched-chain alpha-keto acid dehydrogenase complex, mitochondrial L206P, P11182 | -0.291 ± 0.063 |
| Lipoamide acyltransferase component of branched-chain alpha-keto acid dehydrogenase complex, mitochondrial K196P, P11182 | -0.051 ± 0.047 |
| Lipoamide acyltransferase component of branched-chain alpha-keto acid dehydrogenase complex, mitochondrial K202Q, P11182 | -0.088 ± 0.049 |
| Lipoamide acyltransferase component of branched-chain alpha-keto acid dehydrogenase complex, mitochondrial T171P, P11182 | -0.422 ± 0.11 |
| Lipoamide acyltransferase component of branched-chain alpha-keto acid dehydrogenase complex, mitochondrial L201H, P11182 | -0.32 ± 0.07 |
| Lipoamide acyltransferase component of branched-chain alpha-keto acid dehydrogenase complex, mitochondrial R179T, P11182 | -0.304 ± 0.091 |
| Lipoamide acyltransferase component of branched-chain alpha-keto acid dehydrogenase complex, mitochondrial L206S, P11182 | -0.072 ± 0.049 |
| Lipoamide acyltransferase component of branched-chain alpha-keto acid dehydrogenase complex, mitochondrial T174L, P11182 | -0.724 ± 0.059 |
| Lipoamide acyltransferase component of branched-chain alpha-keto acid dehydrogenase complex, mitochondrial D197I, P11182 | -1.31 ± 0.15 |
| Lipoamide acyltransferase component of branched-chain alpha-keto acid dehydrogenase complex, mitochondrial Y208L, P11182 | -0.032 ± 0.047 |
| Lipoamide acyltransferase component of branched-chain alpha-keto acid dehydrogenase complex, mitochondrial K211L, P11182 | -0.115 ± 0.043 |
| Lipoamide acyltransferase component of branched-chain alpha-keto acid dehydrogenase complex, mitochondrial E190H, P11182 | -0.086 ± 0.072 |
| Lipoamide acyltransferase component of branched-chain alpha-keto acid dehydrogenase complex, mitochondrial V191H, P11182 | -0.619 ± 0.12 |

Source: the Human Domainome abundance scans (Beltran et al. 2025)
